Laboratory results reported in IntAct's records for PubMed 15848184.

B1: Protein EAP1 (Saccharomyces cerevisiae), P36041 (parent)
chain: MELNDPSIISSSQFSGELSDSDTAAATHKSQQAISNLFQKLAKKGREEKPIGSVESSTDSSNISVATSGNNKESNKKKNKKTAMLNFSSLTDPITNYKPMDLQYKTYAYSMNELYHLKPSLASASYEEDPLISELVRSLPKRKFWRLRMGPPDQKHANNHHFNGNNGGGSWKAGYKNGKNDERRMSRTKNMQGGKRRSQQDDEEKKIDQEMLEMDKNLQLGGDVGHSIADFEDWKAKMKELELKKLSKSKGISNSTAIAPRESASHETPTDLRPVIPRGPSSITDFLNLKRQDKKEESSQQTPGIPVGQPSLSKTSIEQVNELETNSDLGKSSSSRFSSFFNKSATSLPSLDNNNQVPSSNVSVVNNDGNSTPHQSGSRLMSFFKESRSSTPNAESQLLSASDKDNGKMQTLPQFQQQPQQMQPMAFTQHPPNNNAFFNGLLNKGKSETSTPPPPPPGLIAHQGPQFPVMGVPPNFPQRMMPPPPGLVQFQKDSKDVNKKEDRQLRQNKNPNGTRNSKGKQEETATPDLPQQQYMPPPPPPGFFPMHPNFPNGPMPPLPQGFPIPPNGMLPVTGQQPQPPYPNMMLQGNFPPNFQQGFGSNSPMPIPSIINANGKNVTNQLPPGLNSKKNIK
partner: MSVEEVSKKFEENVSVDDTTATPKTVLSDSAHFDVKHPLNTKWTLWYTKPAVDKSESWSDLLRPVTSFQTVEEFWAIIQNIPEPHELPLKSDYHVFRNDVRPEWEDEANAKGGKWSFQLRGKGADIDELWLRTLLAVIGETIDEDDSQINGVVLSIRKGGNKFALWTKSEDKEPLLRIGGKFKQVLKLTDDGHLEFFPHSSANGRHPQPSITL

Variants of: B1
Settings: with if4e_yeast CDC33, P07260

| Variant | effect of a mutation on the interaction |
| --- | --- |
| Y109A;L114A | disrupting interaction |
| Y109A | disrupting interaction |
